Data on nine molecules can be found in patent US20160185837A1 (Medimmune Limited, priority 2013, published 2016).

Holding throughout (assay type): cell-based
Assay [1] deals with T1, human GLP-1 receptor (hGLP-1r) (Homo sapiens, UniProt P43220).
T1 construct: expressed in transfected cells
Description: BSA-cAMP assay, cells expressing human GLP-1 receptor. The note with it: BSA-cAMP assay; batch 1 unless a batch is given; read-out: cAMP activity hGLP1r (EC50). As for the experimental part:
(§1) One basic cAMP assays was performed, differing in the medium used for the assay, the “BSA-cAMP assay”:
(§2) BSA-based assay medium: 0.1% bovine serum albumin (BSA) in
(§3) In certain aspects, the assay can also be carried out in medium supplemented with serum albumin that corresponds to the receptor being tested, e.g., human serum albumin for testing cAMP activity at hGIPr or hGLP-1r, rat serum albumin for testing cAMP activity at rGIPr or rGLP-1r, and so on. […] All sample dilutions were made in duplicate.
(§4) A frozen cryo-vial of cells expressing the receptor of interest was thawed rapidly in a water-bath, transferred to pre-warmed assay media and spun at 240×g for 5 minutes. Cells were re-suspended in assay buffer at an optimized concentration (e.g., hGLP-1r and hGIPr cells at 0.5×10^5 cells/ml).
(§5) To this, 5 μL cell suspension was added and the plates incubated at room temperature for 30 minutes.
(§6) cAMP levels were measured using a commercially available cAMP dynamic 2 HTRF kit (Cisbio, Cat #62AM4PEJ), following the two step protocol as per manufacturer's recommendations. In brief; anti-cAMP cryptate (donor fluorophore) and cAMP-d2 (acceptor fluorophore) were made up separately by diluting each 1/20 in conjugate & lysis buffer provided in the kit. 5 μL anti-cAMP cryptate was added to all wells of the assay plate, and 5 μL cAMP-d2 added to all wells except non-specific binding (NSB) wells, to which conjugate and lysis buffer was added. […] Data was transformed to % Delta F as described in manufacturer's guidelines and then transformed to percent activation of maximal native agonist response and analysed by 4-parameter logistic fit to determine EC50 values.
(§7) We used unconstrained 4 parameter logistic fit of data, curve mid-point to determine EC50. This was tested on two occasions, not two batches.
(In general: Changes in cAMP serve as a functional read-out for many G protein-coupled receptors.)

The target in assay [2] is T2, human GIP receptor (hGIPr) (Homo sapiens, UniProt P48546).
T2 construct: expressed in transfected cells
T2 sequence (P48546 22-466): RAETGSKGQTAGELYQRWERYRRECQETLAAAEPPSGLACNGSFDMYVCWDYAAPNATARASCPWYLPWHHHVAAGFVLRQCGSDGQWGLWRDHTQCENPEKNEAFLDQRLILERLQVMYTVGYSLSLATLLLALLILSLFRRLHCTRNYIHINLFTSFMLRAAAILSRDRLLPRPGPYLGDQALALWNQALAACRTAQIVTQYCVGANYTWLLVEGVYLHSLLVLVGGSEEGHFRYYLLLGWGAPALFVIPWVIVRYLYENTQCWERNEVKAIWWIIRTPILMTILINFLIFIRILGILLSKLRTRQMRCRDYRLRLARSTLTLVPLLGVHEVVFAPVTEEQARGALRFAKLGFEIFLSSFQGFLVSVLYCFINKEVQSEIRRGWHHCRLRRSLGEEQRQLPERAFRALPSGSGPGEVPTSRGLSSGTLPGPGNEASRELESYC
Description: BSA-cAMP assay, cells expressing human GIP receptor. The following applies: BSA-cAMP assay; batch 1 unless a batch is given; read-out: cAMP activity hGIPr (EC50). As for the experimental part: For human GIPr, two different lines were used, shown as “hGIPr” and “hGIPr (C3)” in Table 11.
as §1, §2, §3, §4, §5, §6, §7

Assay [3] addresses T3, human glucagon receptor (GCGr) (Homo sapiens, UniProt P47871).
T3 construct: expressed in transfected cells; host or cells: HEK293s or CHO cells
Description: BSA-cAMP assay, cells expressing human glucagon receptor. The note with it: batch 1 unless a batch is given, read-out: cAMP activity hGCGr (EC50). As for the experimental part: as §1, §2, §3, §4, §5, §6, §7

Assay [4] deals with T4, mouse GLP-1 receptor (mGLP-1r) (Mus musculus, UniProt O35659).
T4 construct: expressed in transfected cells; host or cells: HEK293s or CHO cells
T4 sequence (O35659 22-463): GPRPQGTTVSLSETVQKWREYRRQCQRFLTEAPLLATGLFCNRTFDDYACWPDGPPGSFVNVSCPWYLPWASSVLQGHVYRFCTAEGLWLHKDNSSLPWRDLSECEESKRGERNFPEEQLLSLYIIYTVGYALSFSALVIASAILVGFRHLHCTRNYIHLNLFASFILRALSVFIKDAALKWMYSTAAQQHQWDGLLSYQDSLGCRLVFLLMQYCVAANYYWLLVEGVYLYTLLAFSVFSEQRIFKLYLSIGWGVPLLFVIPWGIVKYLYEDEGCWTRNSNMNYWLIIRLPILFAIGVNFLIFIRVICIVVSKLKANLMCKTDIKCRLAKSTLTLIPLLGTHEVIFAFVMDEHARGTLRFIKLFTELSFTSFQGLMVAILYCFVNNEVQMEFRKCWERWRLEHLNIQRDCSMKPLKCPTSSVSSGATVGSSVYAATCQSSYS
Description: BSA-cAMP assay, cells expressing mouse GLP-1 receptor. The note with it: BSA-cAMP assay; read-out: cAMP activity mGLP1r (EC50). As for the experimental part:
as §1, §2, §3, §4, §5, §6, §7
(§8) In order to be able to carry out in vivo studies in rodents, IP088 was tested for potency against the mouse receptors mGIPr and mGLP-1r as well as the rat receptors rGIPr and rGLP-1r, using cells expressing the respective receptors in the cAMP assay described above.

The target in assay [5] is T5, rat GLP-1 receptor (rGLP-1r) (Rattus norvegicus, UniProt P32301).
T5 construct: expressed in transfected cells; host or cells: HEK293s or CHO cells
T5 sequence (P32301 22-463): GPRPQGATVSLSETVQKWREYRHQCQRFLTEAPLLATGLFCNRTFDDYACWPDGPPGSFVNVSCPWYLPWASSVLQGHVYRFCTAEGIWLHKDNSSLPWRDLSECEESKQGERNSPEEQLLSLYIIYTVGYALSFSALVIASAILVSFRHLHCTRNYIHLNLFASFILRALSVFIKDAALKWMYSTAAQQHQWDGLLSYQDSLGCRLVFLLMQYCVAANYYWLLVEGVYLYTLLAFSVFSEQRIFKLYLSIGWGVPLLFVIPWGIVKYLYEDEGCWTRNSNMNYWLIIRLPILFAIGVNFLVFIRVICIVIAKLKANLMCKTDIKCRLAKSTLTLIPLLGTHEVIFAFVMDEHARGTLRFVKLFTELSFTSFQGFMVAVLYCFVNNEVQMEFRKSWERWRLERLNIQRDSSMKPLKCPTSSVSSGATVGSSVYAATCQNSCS
Description: BSA-cAMP assay, cells expressing rat GLP-1 receptor. The following applies: BSA-cAMP assay; read-out: cAMP activity rGLP1r (EC50). As for the experimental part:
as §1, §2, §3, §4, §5, §6, §7, §8

In assay [6] the target is T6, mouse GIP receptor (mGIPr) (Mus musculus, UniProt Q0P543).
T6 construct: expressed in transfected cells; host or cells: HEK293s or CHO cells
T6 sequence (Q0P543 19-460): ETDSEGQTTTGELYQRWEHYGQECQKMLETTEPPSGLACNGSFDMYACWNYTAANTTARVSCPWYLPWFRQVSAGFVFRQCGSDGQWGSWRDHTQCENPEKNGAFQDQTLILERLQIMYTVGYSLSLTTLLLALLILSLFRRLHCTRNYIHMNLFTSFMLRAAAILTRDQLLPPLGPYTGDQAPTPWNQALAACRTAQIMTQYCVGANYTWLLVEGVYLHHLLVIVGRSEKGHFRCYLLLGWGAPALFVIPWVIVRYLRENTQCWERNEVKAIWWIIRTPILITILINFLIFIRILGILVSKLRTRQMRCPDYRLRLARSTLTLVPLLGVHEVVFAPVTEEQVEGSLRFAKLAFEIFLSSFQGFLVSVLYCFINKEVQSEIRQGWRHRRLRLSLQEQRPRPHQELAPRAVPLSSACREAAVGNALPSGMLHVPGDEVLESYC
Description: BSA-cAMP assay, cells expressing mouse GIP receptor. The following applies: BSA-cAMP assay; read-out: cAMP activity mGIPr (EC50). As for the experimental part:
as §1, §2, §3, §4, §5, §6, §7, §8

Another assay deals with T7, rat GIP receptor (rGIPr) (Rattus norvegicus, UniProt P43219).
T7 construct: expressed in transfected cells; host or cells: HEK293s or CHO cells
T7 sequence (P43219 19-455): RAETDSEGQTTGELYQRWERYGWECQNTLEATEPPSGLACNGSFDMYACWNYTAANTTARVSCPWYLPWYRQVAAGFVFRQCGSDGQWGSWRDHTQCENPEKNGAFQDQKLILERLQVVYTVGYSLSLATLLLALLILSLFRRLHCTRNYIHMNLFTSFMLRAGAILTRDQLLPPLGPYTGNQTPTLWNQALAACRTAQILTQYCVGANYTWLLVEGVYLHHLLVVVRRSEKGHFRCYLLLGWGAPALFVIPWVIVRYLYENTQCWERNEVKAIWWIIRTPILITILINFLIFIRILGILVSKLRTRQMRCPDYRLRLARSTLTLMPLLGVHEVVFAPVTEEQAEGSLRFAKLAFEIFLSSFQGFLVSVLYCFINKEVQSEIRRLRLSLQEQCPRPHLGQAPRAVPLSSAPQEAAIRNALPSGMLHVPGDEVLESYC
Description: BSA-cAMP assay, cells expressing rat GIP receptor. The following applies: BSA-cAMP assay; read-out: cAMP activity rGIPr (EC50). As for the experimental part: as §1, §2, §3, §4, §5, §6, §7, §8

Several values for one entry are separate records, joined by “and”; a condition that tells them apart may be missing. Identical values can stand only once.

T1 sequence (P43220 24-463): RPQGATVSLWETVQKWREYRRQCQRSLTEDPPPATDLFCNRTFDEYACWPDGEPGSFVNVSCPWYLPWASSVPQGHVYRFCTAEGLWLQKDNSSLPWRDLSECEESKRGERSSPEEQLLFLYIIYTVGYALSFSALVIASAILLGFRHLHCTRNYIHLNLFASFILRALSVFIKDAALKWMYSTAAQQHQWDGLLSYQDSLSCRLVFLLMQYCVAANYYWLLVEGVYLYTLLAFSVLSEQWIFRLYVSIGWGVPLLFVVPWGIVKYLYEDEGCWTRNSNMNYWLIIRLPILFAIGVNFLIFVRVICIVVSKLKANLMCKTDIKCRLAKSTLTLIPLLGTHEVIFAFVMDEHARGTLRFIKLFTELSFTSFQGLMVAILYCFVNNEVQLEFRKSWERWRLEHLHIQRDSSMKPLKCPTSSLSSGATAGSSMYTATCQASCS
T3 sequence (P47871 26-477): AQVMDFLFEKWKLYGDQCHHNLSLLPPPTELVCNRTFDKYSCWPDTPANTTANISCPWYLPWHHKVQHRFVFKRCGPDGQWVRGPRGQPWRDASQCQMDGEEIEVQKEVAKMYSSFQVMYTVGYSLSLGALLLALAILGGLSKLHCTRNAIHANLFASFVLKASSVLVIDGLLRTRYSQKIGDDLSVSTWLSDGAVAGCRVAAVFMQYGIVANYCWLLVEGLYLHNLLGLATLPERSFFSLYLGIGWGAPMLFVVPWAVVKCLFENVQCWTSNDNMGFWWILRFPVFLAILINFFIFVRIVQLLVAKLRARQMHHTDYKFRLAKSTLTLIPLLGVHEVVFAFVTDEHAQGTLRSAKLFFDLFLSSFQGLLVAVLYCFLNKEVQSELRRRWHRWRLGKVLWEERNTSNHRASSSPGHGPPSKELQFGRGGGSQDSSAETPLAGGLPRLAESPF

B1: IP207 (protein)
chain: YAEGTFISDYSIAMDKIHQQDFVNWLLAQKGKKNDWKHNITQAAAGGSGSTASSGSGSATGGGGAATHTCPPCPAPELL
modifications: /note=“Description of Artificial Sequence Synthetic Peptide-linker-hinge polypeptide”
By EC50 is commonly meant the concentration that produces a half-maximal response. For the molecule B1, the 50% effective concentration (EC50) in assay [1] was 4100 nM; in assay [2], 0.0085 nM and 0.0078 nM; in assay [3], 900 nM.

B2: IP015 (protein)
chain: HGEGTFTSDVSSYLEGQAAKEFIAWLVKGAAAGGSGSTASSGSGSATGGGGAATHTCPPCPAPEF
modifications: /note=“Description of Artificial Sequence Synthetic Peptide-linker-hinge polypeptide”
With B2, the concentration giving a half-maximal response (EC50) in assay [1] was 0.041 nM and 0.023 nM and 0.038 nM; in assay [2], 27 nM; in assay [4], 0.13 nM; in assay [5], 0.014 nM.

B3: IP170 (protein)
chain: YSEGTFTSDVSSYMERQAIDEFIAWLLKGGAAAGGSGSTASSGSGSATGGGGAATHTCPPCPAPEF
modifications: /note=“Description of Artificial Sequence Synthetic Peptide-linker-hinge polypeptide”
In the case of B3, the 50% effective concentration (EC50) in assay [1] is 0.12 nM; in assay [2], 0.079 nM; in assay [4], 0.85 nM; in assay [6] it was 34 nM; in assay [5], 0.06 nM; with rat GIP receptor (rGIPr), 2.3 nM.

B4: IP226 (protein)
chain: YSEGTFTSDVSKLLERQAIDEFIAWLLKGGAAAGGSGSTASSGSGSATGGGGAATHTCPPCPAPEF
modifications: /note=“Description of Artificial Sequence Synthetic Peptide-linker-hinge polypeptide”
Regarding B4, the EC50 in assay [1] was determined as 0.2 nM; in assay [2], 0.025 nM; in assay [4] it was 1 nM; in assay [6], 7.5 nM; in assay [5], 0.061 nM; in the assay with rat GIP receptor (rGIPr) it was 0.27 nM.

B5: IP203 (protein)
chain: HGEGTFTSDVSSYLEGQAAKEFIAWLVKGGAAAGGSGSTASSGSGSATGGGGAATHTCPPCPAPEF
modifications: /note=“Description of Artificial Sequence Synthetic Peptide-linker-hinge polypeptide”
In the case of B5, the 50% effective concentration (EC50) was 0.042 nM in assay [1], 110 nM in assay [2] and greater than 650 nM in assay [3].

B6: IP209 (protein)
chain: YSEGTFTSDYSSYMERQAIDEFIAWLLKGGAAAGGSGSTASSGSGSATGGGGAATHTCPPCPAPEF
modifications: /note=“Description of Artificial Sequence Synthetic Peptide-linker-hinge polypeptide”
For B6, the EC50 in assay [1] is 0.23 nM and 0.2 nM; in assay [3], greater than 6270 nM; in assay [4], 0.84 nM and 1.6 nM; in assay [5], 0.075 nM and 0.091 nM.

B7: IP223 (protein)
chain: YSEGTFTSDVSSYMEEEAIDEFIAWLLKGGAAAGGSGSTASSGSGSATGGGGAATHTCPPCPAPEF
modifications: /note=“Description of Artificial Sequence Synthetic Peptide-linker-hinge polypeptide”
For B7, the concentration for a half-maximal effect (EC50) in assay [1] is 16 nM; in assay [2] it was 2.5 nM; in assay [4], 80 nM; in assay [5] it was 18 nM; in the assay with rat GIP receptor (rGIPr), 72 nM.

B8: IP146 (protein)
chain: HGEGTFTSDVSSYLEGQAAKEFIAWLVKGAAAGGSGSTASSGSGSATGGGGAACPPCPAPEF
modifications: /note=“Description of Artificial Sequence Synthetic Peptide-linker-hinge polypeptide”
For the molecule B8, the EC50 in assay [1] came out at 0.049 nM; in assay [2], 83 nM; in assay [3], 650 nM.

B9: IP188 (protein)
chain: YSEGTFISDYSIAMDKIHQQDFVNWLLAQKAPPGGGGGSGGGGSGGGGSGGGGSATHTCPPCPAPEF
modifications: /note=“Description of Artificial Sequence Synthetic Peptide-linker-hinge polypeptide”
Turning to B9, the EC50 in assay [1] is 500 nM; in assay [2] it was 0.0038 nM; in assay [3], 350 nM.
